According to patent US20250250357A1 (NANJING ZAIMING PHARMACEUTICAL, published 2025):
Numbering of substitutions follows the chain as printed. Names and notes keep the numbering of the source.

B1: S009-F6-62.5 (antibody, human IgG1, kappa, V domains shown)
VH: QVQLQQPGTELVKPGASVKLSCRASGYTFTAYWMHWVKQRPGQGLEWIGNINPSNGGTDFNEKFKSKATLTVDKSSSTAYMQLSSLTSEDSAVYYCARGRGYFDVWGTGTTVTVSS
VL: DILLTQSPAILSVSPGERVSFSCRASKNIGTSIHWYQQRTNGSPRLLIKYASESISGIPSRFSGSGSGTDFTLNINSVESEDIADYYCQQSNSWPTLTFGAGTKLELKR
notes: human-murine chimeric antibody, human IgG1/kappa constant regions
B2: S009-F6-76.1 (antibody, human IgG1, kappa, V domains shown)
VH: QVQLQQSGPELVKPGASVKISCKASGYTFTDYYINWVKQRPGQGLEWIGWIFPGRGSTFYYEKFKGKATLTVDKSSSTAYMLLSSLTSEDSAVYFCARRGDSAGYEDLDYWGQGTSVTVSS
VL: NIVMTQSPKFMSMSVGERVTLSCKASENVVTYVSWYQQKPKQSPKLLIYGASKRYTGVPDRFTGSGSATDFTLTISSVQAEDLGDYHCGQSYSYPYTFGGGTKLEIKR
notes: as for B1
B3: F2.39.3-H8 (scFv, not shown: small tags and cut ends)
scFv: EVQLVQSGAEVKKPGASVKVSCKASGYTFTNYWMHWVRQAPGQGLEWMGNINPSSGDSYYNERFMSRVTMTVDKSTSTAYMELSSLRSEDTAVYYCARSGGLWLAFWGQGTLVTVSSGGGGSGGGGSGGGGSDIVMTQTPLSLSVTPGQPASISCKSSQTLLNSVSQNNYLAWYQQKPGQSPTLLVYFASTRESGVPDRFSGSGSGTDFTLKISRVEAEDVGVYYCQQHYRTPYTFGGGTKVEIK
notes: also called S009-F2.39.3 humanized VH2 + VL4
B4: F2.39.3-H5 (scFv, not shown: small tags and cut ends)
scFv: EVQLVQSGAEVKKPGASVKVSCKASGYTFTNYWMHWVRQAPGQGLEWMGNINPSSGDSYYNERFMSRVTMTVDKSTSTAYMELSSLRSEDTAVYYCARSGGLWLAFWGQGTLVTVSSGGGGSGGGGSGGGGSDIVMTQSPDSLAVSLGERATINCKSSQTLLNSVSQNNYLAWYQQKPGQSPKLLIYFASTRESGVPDRFSGSGSGTDFTLTISSLQAEDVAVYYCQQHYRTPYTFGGGTKVEIK
notes: also called S009-F2.39.3 humanized VH2 + VL1
B5: F2.39.3-H2 (scFv, not shown: small tags and cut ends)
scFv: B4 scFv with A79V, K183T
notes: also called S009-F2.39.3 humanized VH1 + VL2
B6: F2.39.3-H9 (scFv, not shown: small tags and cut ends)
scFv: B4 scFv with Q109P
notes: also called S009-F2.39.3 humanized VH3 + VL1
B7: F2.39.3-H6 (scFv, not shown: small tags and cut ends)
scFv: B4 scFv with K183T
notes: also called S009-F2.39.3 humanized VH2 + VL2
B8: F2.39.3-H1 (scFv, not shown: small tags and cut ends)
scFv: B4 scFv with A79V
notes: expressed as VH-(G4S)3-VL-his or VL-(G4S)3-VH-his; also called S009-F2.39.3 humanized VH1 + VL1
B9: F2.23.12-H5 (scFv, not shown: small tags and cut ends)
scFv: EVQLVQSGAEVKKPGASVKVSCKASGYTFTNYWMHWVRQAPGQGLEWMGNINPSNGGPYYNERFRSRVTMTVDKSTSTAYMELSSLRSEDTAVYYCARPYYGSSYGYFDYWGQGTTVTVSSGGGGSGGGGSGGGGSDIQMTQSPSSLSASVGDRVTITCKASQDINKYIAWYQQKPGKAPKLLIHYTSELQPGVPSRFSGSGSGTDFTFTISSLQPEDIATYYCLQYANPLRTFGGGTKVEIK
notes: also called S009-F2.23.12 humanized VH2 + VL1
B10: F2.23.12-H4 (scFv, not shown: small tags and cut ends)
scFv: B9 scFv with A79V, Q174H, T205R, F207Y
notes: also called S009-F2.23.12 humanized VH1 + VL4
B11: F2.23.12-H1 (scFv, not shown: small tags and cut ends)
scFv: B9 scFv with A79V
notes: also called S009-F2.23.12 humanized VH1 + VL1
B12: F2.23.12-H13 (scFv, not shown: small tags and cut ends)
scFv: B9 scFv with N55Q
notes: also called S009-F2.23.12 humanized VH4 + VL1
B13: F2.23.12-H8 (scFv, not shown: small tags and cut ends)
scFv: B9 scFv with Q174H, T205R, F207Y
notes: also called S009-F2.23.12 humanized VH2 + VL4
B14: F2.23.12-H16 (scFv, not shown: small tags and cut ends)
scFv: B9 scFv with N55Q, Q174H, T205R, F207Y
notes: also called S009-F2.23.12 humanized VH4 + VL4

Molecular target: T1, human MSLN-FL-his protein (human, UniProt Q13421 296-580)
T1 construct: made in HEK293E cells, purified on nickel column; also called hMSLN-FL-his; human MSLN full-length protein; not shown: His tag
T1 sequence (Q13421 other isoform, or with tags, fused parts or gaps): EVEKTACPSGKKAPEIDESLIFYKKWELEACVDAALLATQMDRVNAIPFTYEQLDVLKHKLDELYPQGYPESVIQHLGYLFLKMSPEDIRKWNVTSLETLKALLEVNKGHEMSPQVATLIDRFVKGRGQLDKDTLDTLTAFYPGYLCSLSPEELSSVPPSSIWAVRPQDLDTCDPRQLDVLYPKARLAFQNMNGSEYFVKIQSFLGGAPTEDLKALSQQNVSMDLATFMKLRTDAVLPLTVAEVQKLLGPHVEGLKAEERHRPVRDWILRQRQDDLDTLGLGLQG
Experiment: competitive ELISA; row Tab106

Row | competition rate | Binder
1 | 30% | B1
2 | 27% | B2

Molecular target: T1, human MSLN-FL-his protein
Experiment: competitive ELISA; row Tab142

Row | competition rate | Binder
3 | 28% | B1
4 | 39% | B2

Molecular target: T1, human MSLN-FL-his protein
Experiment: competitive ELISA; row F3-63.5

Row | competition rate | Binder
5 | -17% | B1
6 | 2% | B2

Molecular target: T1, human MSLN-FL-his protein
Experiment: competitive ELISA; row F6-62.5

Row | competition rate | Binder
7 | -76% | B1
8 | 60% | B2

Molecular target: T1, human MSLN-FL-his protein
Experiment: competitive ELISA; row F6-76.1

Row | competition rate | Binder
9 | 57% | B1
10 | 98% | B2

Molecular target: T1, human MSLN-FL-his protein
Experiment: competitive ELISA; row F2-56.12

Row | competition rate | Binder
11 | -143% | B1
12 | 99% | B2

Molecular target: T1, human MSLN-FL-his protein
Experiment: competitive ELISA; row F4-94.15

Row | competition rate | Binder
13 | 25% | B1
14 | 94% | B2

Molecular target: T2, human MSLN-hFc protein (Acro, Cat. No. MSN-H5253) (human, UniProt Q13421 296-580)
T2 construct: bought protein; also called human MSLN full-length protein; not shown: human Fc (hFc) of the bought protein
T2 sequence (Q13421 other isoform, or with tags, fused parts or gaps limits assumed): as the sequence (Q13421 other isoform, or with tags, fused parts or gaps) above, with P14R counted along it
Experiment: ELISA, coated human MSLN-hFc, antibody 1 nM

Row | OD450 nm | Binder
15 | 0.31 | B3
16 | 0.39 | B4
17 | 0.3 | B5
18 | 0.39 | B6
19 | 0.31 | B7
20 | 0.55 | B8

Molecular target: T2, human MSLN-hFc protein (Acro, Cat. No. …)
Experiment: ELISA, coated human MSLN-hFc, antibody 1 nM
Remark: another data set of the same source

Row | OD450 nm | Binder
21 | 0.22 | B9
22 | 0.57 | B10
23 | 0.26 | B11
24 | 0.16 | B12
25 | 0.17 | B13
26 | 0.13 | B14

Molecular target: T2, human MSLN-hFc protein (Acro, Cat. No. …)
Experiment: ELISA, coated human MSLN-hFc, antibody 10 nM

Row | OD450 nm | Binder
27 | 1.17 | B3
28 | 1.21 | B4
29 | 1.19 | B5
30 | 1.22 | B6
31 | 1.18 | B7
32 | 1.23 | B8

Molecular target: T2, human MSLN-hFc protein (Acro, Cat. No. …)
Experiment: ELISA, coated human MSLN-hFc, antibody 10 nM
Remark: another data set of the same source

Row | OD450 nm | Binder
33 | 0.83 | B9
34 | 0.92 | B10
35 | 0.82 | B11
36 | 0.73 | B12
37 | 0.62 | B13
38 | 0.64 | B14

Molecular target: T2, human MSLN-hFc protein (Acro, Cat. No. …)
Experiment: ELISA, coated human MSLN-hFc, antibody 0.1 nM

Row | OD450 nm | Binder
39 | 0.1 | B3
40 | 0.11 | B4
41 | 0.1 | B5
42 | 0.11 | B6
43 | 0.1 | B7
44 | 0.17 | B8

Molecular target: T2, human MSLN-hFc protein (Acro, Cat. No. …)
Experiment: ELISA, coated human MSLN-hFc, antibody 100 nM

Row | OD450 nm | Binder
45 | 1.95 | B3
46 | 1.87 | B4
47 | 1.82 | B5
48 | 1.81 | B6
49 | 1.69 | B7
50 | 1.68 | B8

Molecular target: T2, human MSLN-hFc protein (Acro, Cat. No. …)
Experiment: ELISA, coated human MSLN-hFc, antibody 0.1 nM
Remark: another data set of the same source

Row | OD450 nm | Binder
51 | 0.09 | B9
52 | 0.18 | B10
53 | 0.09 | B11
54 | 0.08 | B12
55 | 0.09 | B13
56 | 0.07 | B14

Molecular target: T2, human MSLN-hFc protein (Acro, Cat. No. …)
Experiment: ELISA, coated human MSLN-hFc, antibody 100 nM
Remark: another data set of the same source

Row | OD450 nm | Binder
57 | 1.37 | B9
58 | 1.22 | B10
59 | 1.22 | B11
60 | 1.38 | B12
61 | 1.22 | B13
62 | 1.2 | B14

Molecular target: T2, human MSLN-hFc protein (Acro, Cat. No. …)
Experiment: ELISA, coated human MSLN-hFc, antibody 0.01 nM

Row | OD450 nm | Binder
63 | 0.06 | B3
64 | 0.06 | B4
65 | 0.06 | B5
66 | 0.06 | B6
67 | 0.07 | B7
68 | 0.07 | B8

Molecular target: T2, human MSLN-hFc protein (Acro, Cat. No. …)
Experiment: ELISA, coated human MSLN-hFc, antibody 0.01 nM
Remark: another data set of the same source

Row | OD450 nm | Binder
69 | 0.07 | B9
70 | 0.09 | B10
71 | 0.07 | B11
72 | 0.07 | B12
73 | 0.07 | B13
74 | 0.06 | B14

Molecular target: T2, human MSLN-hFc protein (Acro, Cat. No. …)
Experiment: ELISA, coated human MSLN-hFc, antibody 0.001 nM

Row | OD450 nm | Binder
75 | 0.06 | B3
76 | 0.06 | B4
77 | 0.06 | B5
78 | 0.06 | B6
79 | 0.06 | B7
80 | 0.06 | B8

Molecular target: T2, human MSLN-hFc protein (Acro, Cat. No. …)
Experiment: ELISA, coated human MSLN-hFc, antibody 0.001 nM
Remark: another data set of the same source

Row | OD450 nm | Binder
81 | 0.06 | B9
82 | 0.08 | B10
83 | 0.06 | B11
84 | 0.07 | B12
85 | 0.07 | B13
86 | 0.07 | B14

Molecular target: T2, human MSLN-hFc protein (Acro, Cat. No. …)
Experiment: ELISA, coated human MSLN-hFc, antibody 0.0001 nM

Row | OD450 nm | Binder
87 | 0.05 | B3
88 | 0.06 | B4
89 | 0.06 | B5
90 | 0.05 | B6
91 | 0.06 | B7
92 | 0.06 | B8

Molecular target: T2, human MSLN-hFc protein (Acro, Cat. No. …)
Experiment: ELISA, coated human MSLN-hFc, antibody 0.0001 nM
Remark: another data set of the same source

Row | OD450 nm | Binder
93 | 0.06 | B9
94 | 0.07 | B10
95 | 0.07 | B11
96 | 0.05 | B12
97 | 0.05 | B13
98 | 0.05 | B14

Molecular target: T1, human MSLN-FL-his protein
Experiment: SPR (Biacore), antibody captured on Protein A chip;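 also: measured at 25 °C, analyte injected 240 s in five twofold dilutions from 200 nM, dissociation up to 600 s, double-referenced, fitted with Langmuir 1:1 model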

Row | Kd | koff | kon | Binder
99 | 120 nM | 0.0173 s⁻¹ | 144000 M⁻¹ s⁻¹ | B1
100 | 10.1 nM | 0.000369 s⁻¹ | 36700 M⁻¹ s⁻¹ | B2
